Assay results published in paper PMC10313822, “Disruption of ER ion homeostasis maintained by an ER anion channel CLCC1 contributes to ALS-like pathologies” (Cell Research, 2023).

Target: the molecule itself
Experiment: SEC; Superose 6 Increase, TBS (50 mM Tris-HCl pH 7.4, 150 mM NaCl) with 0.025% DDM and 2 mM DTT; size estimated from standard markers

B1: purified full-length mouse CLCC1, His-tagged (natural protein, UniProt Q99LI2 19-539, looked up)
chain: HDDDWIDPTDMLNYDAASGTMRKSQVRSGTSEKKEVSPDSSEAEELSDCLHRLDSLTHKVDSCEKKKMKDYESQSNPVFRRYLNKILIEAGKLGLPDENKVEMRYDAEILLSRQTLLEIQKFLSGEEWKPGALDDALSDILINFKCHDSEAWKWQFEDYFGVDPYNVFMVLLCLLCLVVLVATELWTYVRWYTQMKRIFIISFLLSLAWNWIYLYKMAFAQHQANIAGMEPFDNLCAKKMDWTGSLWEWFTSSWTYKDDPCQKYYELLIVNPIWLVPPTKALAITFTNFVTEPLKHIGKGAGEFIKALMKEIPVLLQIPVLAILALAVLSFCYGAGRSVPMLRHFGGPDREPPRALEPDDRRRQKGLDYRLHGGAGDADFSYRGPAGSIEQGPYDKMHASKRDALRQRFHSGNKSPEVLRAFDLPDTEAQEHPEVVPSHKSPIMNTNLETGELPGESTPTEYSQSAKDVSGQVPSAGKSSPTVDKAQLKTDSECSPPGGCPPSKEAAVAAHGTEPVSSPCG
notes: CLCC1, mouse, full length (NM_145543.2; 539 residues by the printed limits of the C-terminal polypeptide 355-539); The predicted signal peptide may be removed in insect cells; also called mCLCC1; WT mCLCC1; source: High Five insect cells (baculovirus), purified (Ni-NTA, Superose 6 Increase); not shown: His10, C-terminal, kept
  binding result: binds

B2: C350F mutant mouse CLCC1, purified (natural protein, UniProt Q99LI2 19-539, looked up)
chain: HDDDWIDPTDMLNYDAASGTMRKSQVRSGTSEKKEVSPDSSEAEELSDCLHRLDSLTHKVDSCEKKKMKDYESQSNPVFRRYLNKILIEAGKLGLPDENKVEMRYDAEILLSRQTLLEIQKFLSGEEWKPGALDDALSDILINFKCHDSEAWKWQFEDYFGVDPYNVFMVLLCLLCLVVLVATELWTYVRWYTQMKRIFIISFLLSLAWNWIYLYKMAFAQHQANIAGMEPFDNLCAKKMDWTGSLWEWFTSSWTYKDDPCQKYYELLIVNPIWLVPPTKALAITFTNFVTEPLKHIGKGAGEFIKALMKEIPVLLQIPVLAILALAVLSFFYGAGRSVPMLRHFGGPDREPPRALEPDDRRRQKGLDYRLHGGAGDADFSYRGPAGSIEQGPYDKMHASKRDALRQRFHSGNKSPEVLRAFDLPDTEAQEHPEVVPSHKSPIMNTNLETGELPGESTPTEYSQSAKDVSGQVPSAGKSSPTVDKAQLKTDSECSPPGGCPPSKEAAVAAHGTEPVSSPCG
notes: CLCC1, mouse, full length, with C350F; also called C350F mCLCC1; source: High Five insect cells (baculovirus), purified (Ni-NTA, Superose 6 Increase)
  binding result: binds
